Results reported in paper PMC4868700, “Use of a novel cytotoxic HEXIM1 peptide in the directed breast cancer therapy” (Oncotarget, 2015).
“Also recorded” adds a separate entry of the source. No end group written: not given here.

Columns and labels:
Assay type in all cases: cell-based, Human
MCF7 cells [1] = test: Internalized fluorescent peptide by flow cytometry; details: MCF7, FITC-labeled peptides 30 μM, 30 min at 37°C, washed, trypsinized, mean of three independent experiments, Figure 6B
Description: (§1) Figure 6 The un-tagged HEXIM1 BR peptide fails to enter cells by itself (A) MCF7 cells were cultured on glass slides overnight before incubation with the indicated FITC-labeled peptides (30 μM) for 30 min and subsequently analyzed by laser scanning confocal microscopy. Nuclei were visualized by DAPI. Cells treated with vehicle, DMSO (0.5%) were used as control. Representative fluorescent images are shown (bar, 10 μm). (B) The FITC-positive cells were quantified by flow cytometry. Data represent percentage of fluorescence-positive cells in total cell population. Results were summarized as mean ± SD of three independent experiments (***P < 0.0001, Student's t test).
MCF7 cells were plated on 6-cm culture dish to allow overnight adherence. FITC-labeled peptides (30 μM) were added to the cells, incubated for 30 min at 37°C, and subsequently washed three times with PBS. The cells were then trypsinized, collected by centrifugation, and finally resuspended in 500 μl ice-cold 2% FBS-containing PBS for flow cytometry analysis.

MCF7 cells [2] = test: Internalization and intracellular distribution of FITC-labeled peptides, confocal microscopy; details: MCF7, FITC-labeled peptides 30 μM, 30 min, washed three times with PBS, Figure 6A
Description: as §1
To determine the ability of FITC-labeled peptides to enter the cells and to visualize intracellular distribution of the peptides, MCF7 cells were plated on 4-chamber glass cover slides (Lab-Tek) to adhere overnight, incubated with FITC-labeled peptides (30 μM) for 30 min, and then washed three times with PBS before being fixed and mounted with DAPI-containing mounting solution (Vectashield). Images were acquired using a Nikon A1R confocal laser scanning microscope equipped with a 60 × oil-immersion objective lens (SBIC-Nikon Imaging Centre).

MCF7 cells [3] = test: Cell viability (CellTiter-Glo); details: MCF7, different concentrations overnight, Figure 5A, 5C
Description: (§2) Cells were plated in clear-bottomed white walled 96-well plates (Corning) and incubated overnight. Cells were treated with indicated peptides in 1% FBS-containing media for overnight or indicated timings at 37°C. Cell viability was measured with CellTiter-Glo reagent (Promega) according to the manufacturer's instructions. For cytotoxicity assay, cells were plated in black walled 96-well plates (Corning) to allow them to adhere overnight. Upon treatment with a pan-caspase inhibitor, z-VAD-Fmk (100 μM) (Sigma) and subsequent treatment with LTV-tagged peptides, cytotoxicity induced was determined by CellTox cytotoxicity assay (Promega) 30 minutes after addition of peptides according to the manufacturer's instructions. Luminescence was determined using an Infinite 200 multiplate reader (Tecan).

MDA-MB-231 cells = test: Cell viability (CellTiter-Glo); details: MDA-MB-231, different concentrations overnight, Figure 5B, 5D, S2
Description: as §2

Substance: BR-FITC: fluorescent-labeled (FITC) BR peptide (QLGKKKHRRRPSKKKRHW; also: FITC label; UniProt O94992 147-164, looked up, fragment)
- percentage of fluorescence-positive cells in total cell population (internalized fluorescent peptide) (MCF7 cells [1]): no entry
- internalization and intracellular distribution of fluorescent-labeled peptide (MCF7 cells [2]): no fluorescent signal was observed

Substance: BR: untagged peptide from the basic region of HEXIM1 containing the HDM2 ubiquitination residues (a.a. 147–164) (QLGKKKHRRRPSKKKRHW; UniProt O94992 147-164, looked up, fragment)
- cell viability (MCF7 cells [3]): had no effect on cell viability
- cell viability (MDA-MB-231 cells): had no effect on cell viability; also recorded: remained highly viable
